Assay results taken from US20220280636A1.

What was measured:
[1] = molecular target: guinea pig whole molecule IgG (guinea pig); test: SPR; IgG amine coupled to CM5 chip, construct flowed at 750 ug/ml; end-point RU of association phase
human IgG Fc (human) [2] = test: as above
[3] = molecular target: human whole molecule IgG (human); test: as above
[4] = molecular target: mouse whole molecule IgG (mouse); test: as above
[5] = molecular target: rabbit whole molecule IgG (rabbit); test: as above
human IgG Fc (human) [6] = test: SPR; IgG amine-coupled to CM5 chip, construct flowed at 750 ug/ml; end-point RU of association phase
[7] = molecular target: human whole molecule IgG (human); test: as above
[8] = molecular target: rabbit whole molecule IgG (rabbit); test: as above
human IgG Fc (human) [9] = test: as above; remark: listed apart in the source
[10] = molecular target: human whole molecule IgG (human); test: as above; remark: listed apart in the source
[11] = molecular target: rabbit whole molecule IgG (rabbit); test: as above; remark: listed apart in the source

| Substance | RU Post Association [1] [RU] | RU Post Association (human IgG Fc (human) [2]) [RU] | RU Post Association [3] [RU] | RU Post Association [4] [RU] | RU Post Association [5] [RU] | RU Post Association (human IgG Fc (human) [6]) [RU] | RU Post Association [7] [RU] | RU Post Association [8] [RU] | RU Post Association (human IgG Fc (human) [9]) [RU] | RU Post Association [10] [RU] | RU Post Association [11] [RU] |
| --- | --- | --- | --- | --- | --- | --- | --- | --- | --- | --- | --- |
| gD-2t 339 (from UniProt Q69467 26-339) | 2 | 4 | 2 | 4 | 11 | 2 | 4 | 1 | 1 | 3 | 2 |
| gE-1t 419/gI-1t 269 (from UniProt P04488 21-419; P06487 21-276) | 19 | 216 | 232 | 11 | 195 | – | – | – | – | – | – |
| gE-2t 24-405 (from UniProt P89475 23-402) | 5 | 8 | 7 | 4 | 6 | – | – | – | – | – | – |
| gE-2t 24-405/gI-2t 262 (from UniProt P89475 23-402; P06764 21-262) | 8 | 95 | 136 | 6 | 142 | – | – | – | – | – | – |
| gE-2t 405 (from UniProt P89475 21-402) | 5 | 5 | 8 | 4 | 6 | – | – | – | – | – | – |
| gE-2t 405/gI-2t 262 (from UniProt P89475 21-402; P06764 21-262) | 9 | 100 | 142 | 8 | 165 | – | – | – | – | – | – |
| gE-2t 414/gI-2t 262 (from UniProt P89475 21-411; P06764 21-262) | 4 | 53 | 79 | 5 | 75 | – | – | – | – | – | – |
| gE-2t 417/gI-2t 262 (from UniProt P89475 21-414; P06764 21-262) | 9 | 41 | 52 | 10 | 46 | 98 | 133 | 138 | 43 | 53 | 45 |
